Source: PMC10850970, “Characterization of N-glycosylation and its functional role in SIDT1-Mediated RNA uptake”

Assay: Western blot of cells and medium, HEK293F
Details: glycan lost; control: WT SIDT1ECD

Row | Protein | expression_or_secretion
1 | SIDT1: SIDT1ECD mutant (all N to Q) (protein) parent chain: MRGCLRLALLCALPWLLLAASPGHPAKSPRQPPAPRRDPFDAARGADFDHVYSGVVNLSTENIYSFNYTSQPDQVTAVRVYVNSSSENLNYPVLVVVRQQKEVLSWQVPLLFQGLYQRSYNYQEVSRTLCPSEATNETGPLQQLIFVDVASMAPLGAQYKLLVTKLKHFQLRTNVAFHFTASPSQPQYFLYKFPKDVDSVIIKVVSEMAYPCSVVSVQNIMCPVYDLDHNVEFNGVYQSMTKKAAITLQKKDFPGEQFFVVFVIKPEDYACGGSFFIQEKENQTWNLQRKKNLEVTIVPSIKESVYVKSSLFSVFIFLSFYLGCLLVGFVHYLRFQRKSIDGSFGSNDGSGNMVASHPIAASTPEGSNYGTIDESSSSPGRQMSSSDGGPPGQSDTDSSVEESDFDTMPDIESDKNIIRTKMFLYLSDLSRKDRRIVSKKYKIYFWNIITIAVFYALPVIQLVITYQTVVNVTGNQDICYYNFLCAHPLGVLSAFNNILSNLGHVLLGFLFLLIVLRRDILHRRALEAKDIFAVEYGIPKHFGLFYAMGIALMMEGVLSACYHVCPNYSNFQFDTSFMYMIAGLCMLKLYQTRHPDINASAYSAYASFAVVIMVTVLGVVFGKNDVWFWVIFSAIHVLASLALSTQIYYMGRFKIDLGIFRRAAMVFYTDCIQQCSRPLYMDRMVLLVVGNLVNWSFALFGLIYRPRDFASYMLGIFICNLLLYLAFYIIMKLRSSEKVLPVPLFCIVATAVMWAAALYFFFQNLSSWEGTPAESREKNRECILLDFFDDHDIWHFLSATALFFSFLVLLTLDDDLDVVRRDQIPVF | decreases
2 | SIDT1: N57Q (protein) parent chain: MRGCLRLALLCALPWLLLAASPGHPAKSPRQPPAPRRDPFDAARGADFDHVYSGVVNLSTENIYSFNYTSQPDQVTAVRVYVNSSSENLNYPVLVVVRQQKEVLSWQVPLLFQGLYQRSYNYQEVSRTLCPSEATNETGPLQQLIFVDVASMAPLGAQYKLLVTKLKHFQLRTNVAFHFTASPSQPQYFLYKFPKDVDSVIIKVVSEMAYPCSVVSVQNIMCPVYDLDHNVEFNGVYQSMTKKAAITLQKKDFPGEQFFVVFVIKPEDYACGGSFFIQEKENQTWNLQRKKNLEVTIVPSIKESVYVKSSLFSVFIFLSFYLGCLLVGFVHYLRFQRKSIDGSFGSNDGSGNMVASHPIAASTPEGSNYGTIDESSSSPGRQMSSSDGGPPGQSDTDSSVEESDFDTMPDIESDKNIIRTKMFLYLSDLSRKDRRIVSKKYKIYFWNIITIAVFYALPVIQLVITYQTVVNVTGNQDICYYNFLCAHPLGVLSAFNNILSNLGHVLLGFLFLLIVLRRDILHRRALEAKDIFAVEYGIPKHFGLFYAMGIALMMEGVLSACYHVCPNYSNFQFDTSFMYMIAGLCMLKLYQTRHPDINASAYSAYASFAVVIMVTVLGVVFGKNDVWFWVIFSAIHVLASLALSTQIYYMGRFKIDLGIFRRAAMVFYTDCIQQCSRPLYMDRMVLLVVGNLVNWSFALFGLIYRPRDFASYMLGIFICNLLLYLAFYIIMKLRSSEKVLPVPLFCIVATAVMWAAALYFFFQNLSSWEGTPAESREKNRECILLDFFDDHDIWHFLSATALFFSFLVLLTLDDDLDVVRRDQIPVF | decreases
3 | SIDT1: N67Q (protein) parent chain: MRGCLRLALLCALPWLLLAASPGHPAKSPRQPPAPRRDPFDAARGADFDHVYSGVVNLSTENIYSFNYTSQPDQVTAVRVYVNSSSENLNYPVLVVVRQQKEVLSWQVPLLFQGLYQRSYNYQEVSRTLCPSEATNETGPLQQLIFVDVASMAPLGAQYKLLVTKLKHFQLRTNVAFHFTASPSQPQYFLYKFPKDVDSVIIKVVSEMAYPCSVVSVQNIMCPVYDLDHNVEFNGVYQSMTKKAAITLQKKDFPGEQFFVVFVIKPEDYACGGSFFIQEKENQTWNLQRKKNLEVTIVPSIKESVYVKSSLFSVFIFLSFYLGCLLVGFVHYLRFQRKSIDGSFGSNDGSGNMVASHPIAASTPEGSNYGTIDESSSSPGRQMSSSDGGPPGQSDTDSSVEESDFDTMPDIESDKNIIRTKMFLYLSDLSRKDRRIVSKKYKIYFWNIITIAVFYALPVIQLVITYQTVVNVTGNQDICYYNFLCAHPLGVLSAFNNILSNLGHVLLGFLFLLIVLRRDILHRRALEAKDIFAVEYGIPKHFGLFYAMGIALMMEGVLSACYHVCPNYSNFQFDTSFMYMIAGLCMLKLYQTRHPDINASAYSAYASFAVVIMVTVLGVVFGKNDVWFWVIFSAIHVLASLALSTQIYYMGRFKIDLGIFRRAAMVFYTDCIQQCSRPLYMDRMVLLVVGNLVNWSFALFGLIYRPRDFASYMLGIFICNLLLYLAFYIIMKLRSSEKVLPVPLFCIVATAVMWAAALYFFFQNLSSWEGTPAESREKNRECILLDFFDDHDIWHFLSATALFFSFLVLLTLDDDLDVVRRDQIPVF | decreases
4 | SIDT1: N136Q (protein) parent chain: MRGCLRLALLCALPWLLLAASPGHPAKSPRQPPAPRRDPFDAARGADFDHVYSGVVNLSTENIYSFNYTSQPDQVTAVRVYVNSSSENLNYPVLVVVRQQKEVLSWQVPLLFQGLYQRSYNYQEVSRTLCPSEATNETGPLQQLIFVDVASMAPLGAQYKLLVTKLKHFQLRTNVAFHFTASPSQPQYFLYKFPKDVDSVIIKVVSEMAYPCSVVSVQNIMCPVYDLDHNVEFNGVYQSMTKKAAITLQKKDFPGEQFFVVFVIKPEDYACGGSFFIQEKENQTWNLQRKKNLEVTIVPSIKESVYVKSSLFSVFIFLSFYLGCLLVGFVHYLRFQRKSIDGSFGSNDGSGNMVASHPIAASTPEGSNYGTIDESSSSPGRQMSSSDGGPPGQSDTDSSVEESDFDTMPDIESDKNIIRTKMFLYLSDLSRKDRRIVSKKYKIYFWNIITIAVFYALPVIQLVITYQTVVNVTGNQDICYYNFLCAHPLGVLSAFNNILSNLGHVLLGFLFLLIVLRRDILHRRALEAKDIFAVEYGIPKHFGLFYAMGIALMMEGVLSACYHVCPNYSNFQFDTSFMYMIAGLCMLKLYQTRHPDINASAYSAYASFAVVIMVTVLGVVFGKNDVWFWVIFSAIHVLASLALSTQIYYMGRFKIDLGIFRRAAMVFYTDCIQQCSRPLYMDRMVLLVVGNLVNWSFALFGLIYRPRDFASYMLGIFICNLLLYLAFYIIMKLRSSEKVLPVPLFCIVATAVMWAAALYFFFQNLSSWEGTPAESREKNRECILLDFFDDHDIWHFLSATALFFSFLVLLTLDDDLDVVRRDQIPVF | decreases
5 | SIDT1: N83Q (protein) parent chain: MRGCLRLALLCALPWLLLAASPGHPAKSPRQPPAPRRDPFDAARGADFDHVYSGVVNLSTENIYSFNYTSQPDQVTAVRVYVNSSSENLNYPVLVVVRQQKEVLSWQVPLLFQGLYQRSYNYQEVSRTLCPSEATNETGPLQQLIFVDVASMAPLGAQYKLLVTKLKHFQLRTNVAFHFTASPSQPQYFLYKFPKDVDSVIIKVVSEMAYPCSVVSVQNIMCPVYDLDHNVEFNGVYQSMTKKAAITLQKKDFPGEQFFVVFVIKPEDYACGGSFFIQEKENQTWNLQRKKNLEVTIVPSIKESVYVKSSLFSVFIFLSFYLGCLLVGFVHYLRFQRKSIDGSFGSNDGSGNMVASHPIAASTPEGSNYGTIDESSSSPGRQMSSSDGGPPGQSDTDSSVEESDFDTMPDIESDKNIIRTKMFLYLSDLSRKDRRIVSKKYKIYFWNIITIAVFYALPVIQLVITYQTVVNVTGNQDICYYNFLCAHPLGVLSAFNNILSNLGHVLLGFLFLLIVLRRDILHRRALEAKDIFAVEYGIPKHFGLFYAMGIALMMEGVLSACYHVCPNYSNFQFDTSFMYMIAGLCMLKLYQTRHPDINASAYSAYASFAVVIMVTVLGVVFGKNDVWFWVIFSAIHVLASLALSTQIYYMGRFKIDLGIFRRAAMVFYTDCIQQCSRPLYMDRMVLLVVGNLVNWSFALFGLIYRPRDFASYMLGIFICNLLLYLAFYIIMKLRSSEKVLPVPLFCIVATAVMWAAALYFFFQNLSSWEGTPAESREKNRECILLDFFDDHDIWHFLSATALFFSFLVLLTLDDDLDVVRRDQIPVF | no change
6 | SIDT1: N282Q (protein) parent chain: MRGCLRLALLCALPWLLLAASPGHPAKSPRQPPAPRRDPFDAARGADFDHVYSGVVNLSTENIYSFNYTSQPDQVTAVRVYVNSSSENLNYPVLVVVRQQKEVLSWQVPLLFQGLYQRSYNYQEVSRTLCPSEATNETGPLQQLIFVDVASMAPLGAQYKLLVTKLKHFQLRTNVAFHFTASPSQPQYFLYKFPKDVDSVIIKVVSEMAYPCSVVSVQNIMCPVYDLDHNVEFNGVYQSMTKKAAITLQKKDFPGEQFFVVFVIKPEDYACGGSFFIQEKENQTWNLQRKKNLEVTIVPSIKESVYVKSSLFSVFIFLSFYLGCLLVGFVHYLRFQRKSIDGSFGSNDGSGNMVASHPIAASTPEGSNYGTIDESSSSPGRQMSSSDGGPPGQSDTDSSVEESDFDTMPDIESDKNIIRTKMFLYLSDLSRKDRRIVSKKYKIYFWNIITIAVFYALPVIQLVITYQTVVNVTGNQDICYYNFLCAHPLGVLSAFNNILSNLGHVLLGFLFLLIVLRRDILHRRALEAKDIFAVEYGIPKHFGLFYAMGIALMMEGVLSACYHVCPNYSNFQFDTSFMYMIAGLCMLKLYQTRHPDINASAYSAYASFAVVIMVTVLGVVFGKNDVWFWVIFSAIHVLASLALSTQIYYMGRFKIDLGIFRRAAMVFYTDCIQQCSRPLYMDRMVLLVVGNLVNWSFALFGLIYRPRDFASYMLGIFICNLLLYLAFYIIMKLRSSEKVLPVPLFCIVATAVMWAAALYFFFQNLSSWEGTPAESREKNRECILLDFFDDHDIWHFLSATALFFSFLVLLTLDDDLDVVRRDQIPVF | no change

Assay: differential scanning fluorometry (Tycho)
Details: glycan changed form; control: SIDT1ECD expressed without kifunensine, same pH

Row | Protein | stability_or_folding, Tm
7 | SIDT1: kifunensine, pH 7.5 (protein) parent chain: MRGCLRLALLCALPWLLLAASPGHPAKSPRQPPAPRRDPFDAARGADFDHVYSGVVNLSTENIYSFNYTSQPDQVTAVRVYVNSSSENLNYPVLVVVRQQKEVLSWQVPLLFQGLYQRSYNYQEVSRTLCPSEATNETGPLQQLIFVDVASMAPLGAQYKLLVTKLKHFQLRTNVAFHFTASPSQPQYFLYKFPKDVDSVIIKVVSEMAYPCSVVSVQNIMCPVYDLDHNVEFNGVYQSMTKKAAITLQKKDFPGEQFFVVFVIKPEDYACGGSFFIQEKENQTWNLQRKKNLEVTIVPSIKESVYVKSSLFSVFIFLSFYLGCLLVGFVHYLRFQRKSIDGSFGSNDGSGNMVASHPIAASTPEGSNYGTIDESSSSPGRQMSSSDGGPPGQSDTDSSVEESDFDTMPDIESDKNIIRTKMFLYLSDLSRKDRRIVSKKYKIYFWNIITIAVFYALPVIQLVITYQTVVNVTGNQDICYYNFLCAHPLGVLSAFNNILSNLGHVLLGFLFLLIVLRRDILHRRALEAKDIFAVEYGIPKHFGLFYAMGIALMMEGVLSACYHVCPNYSNFQFDTSFMYMIAGLCMLKLYQTRHPDINASAYSAYASFAVVIMVTVLGVVFGKNDVWFWVIFSAIHVLASLALSTQIYYMGRFKIDLGIFRRAAMVFYTDCIQQCSRPLYMDRMVLLVVGNLVNWSFALFGLIYRPRDFASYMLGIFICNLLLYLAFYIIMKLRSSEKVLPVPLFCIVATAVMWAAALYFFFQNLSSWEGTPAESREKNRECILLDFFDDHDIWHFLSATALFFSFLVLLTLDDDLDVVRRDQIPVF | decreases, decrease of 4.7 vs 55.1 (pH 7.5), 60.5 (pH 5.5), 61.1 (pH 3.5)
